Experiment [1] has as its target T1, human IL-2Rα (CD25) (human, UniProt P01589 22-240, limits assumed).
T1 construct: also called hIL-2Rα
T1 sequence: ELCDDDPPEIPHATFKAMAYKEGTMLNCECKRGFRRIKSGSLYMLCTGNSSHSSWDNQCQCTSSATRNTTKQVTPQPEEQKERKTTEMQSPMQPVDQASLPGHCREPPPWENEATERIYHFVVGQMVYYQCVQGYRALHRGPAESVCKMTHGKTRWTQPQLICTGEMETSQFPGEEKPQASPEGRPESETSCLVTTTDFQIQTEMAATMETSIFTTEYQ
Briefly: BLI (OCTET RED96), hIL-2Rα loaded on the biosensor, fusion protein in solution at 33.3, 100 and 300 nM. The method, then:
(§1) OCTET® RED96 was used to characterize the interactions of anti-HSA-hIL-2 fusion proteins with human IL-2Rα (CD25) and IL-2Rβ (CD122). Briefly, hIL-2Rα and hIL-2Rβ were each loaded onto a biosensor. Each biosensor was then dipped into a solution containing an anti-HSA-hIL-2 fusion protein at 10 to 2,000 nM. Primary experimental data was analyzed with global fitting to determine a binding affinity (Kd).

Experiment [2] has as its target T1, human IL-2Rα (CD25). Put plainly: BLI (OCTET RED96), receptor loaded on biosensor, fusion protein in solution. The method, then:
as §1

The target of a further experiment is T2, human IL-2Rβ (CD122) (human, UniProt P14784 27-239).
T2 construct: also called hIL-2Rβ
T2 sequence: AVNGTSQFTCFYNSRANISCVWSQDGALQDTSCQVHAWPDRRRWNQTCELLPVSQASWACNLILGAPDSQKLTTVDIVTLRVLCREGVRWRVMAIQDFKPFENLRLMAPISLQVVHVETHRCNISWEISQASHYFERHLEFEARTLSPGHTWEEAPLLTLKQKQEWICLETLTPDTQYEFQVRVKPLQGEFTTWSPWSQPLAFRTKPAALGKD
Put plainly: BLI (OCTET RED96), receptor loaded on biosensor, global fitting. Here is the method:
as §1

B1: Anti-HSA-IL-2 A4 (IL-2-IL15 chimera 12) (other)
chain: EVQLVESGGGLVQPGGSLRLSCAASGSTWSINTLAWYRQAPGKQRDLVARISSGGSTYYADSVKGRFTISRDNSKNTLYLQMNSLRAEDTAVYYCYAQSTWYPPSWGQGTLVTVSSGGGGSGGGGSGGGGSAPTSSSTKKTQLQLKHLLLDLQMILNGIQSMHIDATTFKFYMPKKATELKHLQCLEEELKPLEEVLNLAQSKNFHLRPRDLISNINVIVLELKGSETTFMCEYADETATIVEFLNRWITFSQSIISTLT
notes: Produced in CHO cells; also called anti-HSA-hIL-2 fusion protein A4
For B1, the binding result in the experiment with human IL-2Rα (CD25) [1] is given as “no binding (tested: 300 nM)”.

B2: Anti-HSA-IL-2 A17 (IL-2-IL15 chimera 12) (other)
chain: EVQLVESGGGLVQPGGSLRLSCAASGSTWSINTLAWYRQAPGKQRDLVARISSGGSTYYADSVKGRFTISRDNSKNTLYLQMNSLRAEDTAVYYCYAQSTWYPPSWGQGTLVTVSSASTKGGGGGSGGGGSAPTSSSTKKTQLQLKHLLLDLQMILNGIQSMHIDATTFKFYMPKKATELKHLQCLEEELKPLEEVLNLAQSKNFHLRPRDLISNINVIVLELKGSETTFMCEYADETATIVEFLNRWITFSQSIISTLT
notes: Produced in CHO cells; also called anti-HSA-hIL-2 fusion protein A17
For B2, the binding result with human IL-2Rα (CD25) [2] is reported as “no binding (tested: 10 to 2,000 nM)”.

B3: Anti-HSA-IL-2 A3 (IL-2-IL15 chimera 7) (other)
chain: EVQLVESGGGLVQPGGSLRLSCAASGSTWSINTLAWYRQAPGKQRDLVARISSGGSTYYADSVKGRFTISRDNSKNTLYLQMNSLRAEDTAVYYCYAQSTWYPPSWGQGTLVTVSSGGGGSGGGGSGGGGSAPTSSSTKKTQLQLKHLLLDLQMILNGIQSMEIDATTFKFYMPKKATELKHLQCLEEELKPLEEVLNLAQSKNFHLRPRDLISNINVIVLELKGSETTFMCEYADETATIVEFLNRWITFSQSIISTLT
notes: Produced in CHO cells; also called anti-HSA-hIL-2 fusion protein A3
In the case of B3, the binding result with human IL-2Rα (CD25) [2] is given as “no binding (tested: 10 to 2,000 nM)”.

B4: Anti-HSA-IL-2 A2 (IL-2-IL15 chimera 12) (other)
chain: QVQLVESGGGVVQPGGSLRLSCAASGFAFRGFGMSWVRQAPGKGLEWVSSINNGGSDTYYADSVKGRFTISRDNSKNTLYLQMNSLRAEDTAVYYCAIGGPGASPSGQGTQVTVSSGGGGSGGGGSGGGGSAPTSSSTKKTQLQLKHLLLDLQMILNGIQSMHIDATTFKFYMPKKATELKHLQCLEEELKPLEEVLNLAQSKNFHLRPRDLISNINVIVLELKGSETTFMCEYADETATIVEFLNRWITFSQSIISTLT
notes: E15K, C125S); Produced in CHO cells; also called anti-HSA-hIL-2 fusion protein A2
As to B4, binding in the experiment with human IL-2Rβ (CD122) was put at a Kd of 139 nM. Further, the binding result with human IL-2Rα (CD25) [1] was “no binding (tested: 300 nM)”.

B5: Anti-HSA-IL-2 A15 (IL-2-IL15 chimera 12) (other)
chain: QVQLVESGGGVVQPGGSLRLSCAASGFAFRGFGMSWVRQAPGKGLEWVSSINNGGSDTYYADSVKGRFTISRDNSKNTLYLQMNSLRAEDTAVYYCAIGGPGASPSGQGTQVTVSSASTKGGGGGSGGGGSAPTSSSTKKTQLQLKHLLLDLQMILNGIQSMHIDATTFKFYMPKKATELKHLQCLEEELKPLEEVLNLAQSKNFHLRPRDLISNINVIVLELKGSETTFMCEYADETATIVEFLNRWITFSQSIISTLT
notes: Produced in CHO cells; also called anti-HSA-hIL-2 fusion protein A15
As to B5, the binding result with human IL-2Rα (CD25) [2] is “no binding (tested: 10 to 2,000 nM)”. Besides, in the experiment with human IL-2Rβ (CD122), the Kd amounted to 94 nM.

B6: Anti-HSA-IL-2 A1 (IL-2-IL15 chimera 7) (other)
chain: QVQLVESGGGVVQPGGSLRLSCAASGFAFRGFGMSWVRQAPGKGLEWVSSINNGGSDTYYADSVKGRFTISRDNSKNTLYLQMNSLRAEDTAVYYCAIGGPGASPSGQGTQVTVSSGGGGSGGGGSGGGGSAPTSSSTKKTQLQLKHLLLDLQMILNGIQSMEIDATTFKFYMPKKATELKHLQCLEEELKPLEEVLNLAQSKNFHLRPRDLISNINVIVLELKGSETTFMCEYADETATIVEFLNRWITFSQSIISTLT
notes: E15K, C125S); Produced in CHO cells; also called anti-HSA-hIL-2 fusion protein A1
Regarding B6, in the experiment with human IL-2Rα (CD25) [2], the binding result is “no binding (tested: 10 to 2,000 nM)”. The same molecule gave a Kd in the experiment with human IL-2Rβ (CD122) of 55 nM.
